Positions of bridges follow the written chain, without caps; N, C: chain ends. No end group written: not given here. COCH2 = acetyl group that carries the bridge
Key:
[1] = target: Recombinant Human FGFR1 alpha (IIIc) Fc Chimera Protein, CF (R&D systems, 658-FR-050) (human) (UniProt P11362); assay: SPR grade, peptide 10 nmol/L over FGFR1-Fc; details: scale: moleculesofcyclicpeptide/onemoleculeoffgfr
[2] = target: T1, FGFR4 Protein, Human, Recombinant (His Tag) (Sino Biological, 10538-H08H) (human, UniProt P22455 22-369); assay: SPR grade, FGFR 1 umol/L over immobilized peptide
T1 construct: bought; flowed at 1 umol/L over immobilized peptide
T1 sequence (looked up): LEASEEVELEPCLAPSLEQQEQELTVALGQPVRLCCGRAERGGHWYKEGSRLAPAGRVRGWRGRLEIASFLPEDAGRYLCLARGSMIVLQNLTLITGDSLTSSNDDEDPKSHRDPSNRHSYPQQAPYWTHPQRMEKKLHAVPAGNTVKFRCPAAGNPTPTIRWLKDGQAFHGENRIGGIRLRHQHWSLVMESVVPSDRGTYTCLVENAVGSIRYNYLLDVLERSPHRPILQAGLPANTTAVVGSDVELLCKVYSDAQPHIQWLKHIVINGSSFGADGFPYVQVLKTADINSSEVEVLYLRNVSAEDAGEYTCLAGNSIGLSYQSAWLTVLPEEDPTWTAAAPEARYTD
Procedure: (§1) A CM5 sensor chip (Cytiva, 29149603) was set in Biacore-T200 (manufactured by Cytiva) which is a surface plasmon resonance device, and an HBS-EP buffer (Cytiva, BR100826) was added as a running buffer at a flow rate of 10 μL/min to equilibrate the flow channel. Next, 70 μL of a mixed aqueous solution of 0.2 mol/L 1-(3-dimethylaminopropyl)-3-ethylcarbodiimide (EDC) and 0.05 mol/L N-hydroxysuccinimide (NHS) was added to activate the sensor chip. Then, a cyclic peptide prepared to 2 mg/mL in HBS-EP buffer was added thereto to perform immobilization at about 200 RU. Thereafter, the blocking treatment was performed with an ethanolamine solution. In addition, in another flow channel of the same sensor chip, blocking treatment was performed immediately after activation without […].
(§2) After various FGFRs (FGFR1 Protein, Human, Recombinant (His Tag) (Sino Biological, 10616-H08H), FGFR3 Protein, Human, Recombinant (ECD, His Tag) (Sino Biological, 16044-H08H), FGFR4 Protein, Human, Recombinant (His Tag) (Sino Biological, 10538-H08H)) diluted with HBS-EP to 1 μmol/L at 25° C. was added to each flow channel of the cyclic peptide-immobilized sensor chip prepared above, for 10 minutes, HBS-EP was allowed to flow as a running buffer for 30 minutes, and the binding of various FGFRs to the cyclic peptide was measured. […] The binding amount of the cyclic peptide was evaluated from the difference between the measured value of Biacore-T200 in the flow channel in which the cyclic peptide was immobilized and the measured value of Biacore-T200 in the flow channel in which the cyclic peptide was not immobilized, in a case where 1 μmol/L FGFR was allowed to flow.
(§3) The binding amount of FGFR evaluated above was normalized to the binding amount of FGFR molecules per one molecule of the cyclic peptide using the molecular weights of the cyclic peptide and FGFR, and the binding affinity to FGFR was evaluated according to the following evaluation criteria.

[3] = target: T2, FGFR3 Protein, Human, Recombinant (ECD, His Tag) (Sino Biological, 16044-H08H) (human, UniProt P22607 23-375); assay: SPR grade, FGFR 1 umol/L over immobilized peptide
T2 construct: extracellular domain; bought; flowed at 1 umol/L over immobilized peptide
T2 sequence (looked up): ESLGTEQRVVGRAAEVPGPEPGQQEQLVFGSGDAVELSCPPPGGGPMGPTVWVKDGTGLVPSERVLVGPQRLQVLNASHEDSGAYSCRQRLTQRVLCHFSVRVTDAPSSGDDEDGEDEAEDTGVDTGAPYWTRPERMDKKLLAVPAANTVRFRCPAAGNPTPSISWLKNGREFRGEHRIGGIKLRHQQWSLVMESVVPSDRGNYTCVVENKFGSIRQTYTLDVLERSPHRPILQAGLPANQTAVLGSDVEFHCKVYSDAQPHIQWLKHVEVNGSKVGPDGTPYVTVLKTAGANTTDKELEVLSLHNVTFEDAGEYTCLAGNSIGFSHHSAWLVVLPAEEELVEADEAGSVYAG
Procedure: as §1, §2, §3

[4] = target: T3, FGFR1 Protein, Human, Recombinant (His Tag) (Sino Biological, 10616-H08H) (human, UniProt P11362-7 22-374); assay: SPR grade, FGFR 1 umol/L over immobilized peptide
T3 construct: bought; flowed at 1 umol/L over immobilized peptide
T3 sequence (looked up): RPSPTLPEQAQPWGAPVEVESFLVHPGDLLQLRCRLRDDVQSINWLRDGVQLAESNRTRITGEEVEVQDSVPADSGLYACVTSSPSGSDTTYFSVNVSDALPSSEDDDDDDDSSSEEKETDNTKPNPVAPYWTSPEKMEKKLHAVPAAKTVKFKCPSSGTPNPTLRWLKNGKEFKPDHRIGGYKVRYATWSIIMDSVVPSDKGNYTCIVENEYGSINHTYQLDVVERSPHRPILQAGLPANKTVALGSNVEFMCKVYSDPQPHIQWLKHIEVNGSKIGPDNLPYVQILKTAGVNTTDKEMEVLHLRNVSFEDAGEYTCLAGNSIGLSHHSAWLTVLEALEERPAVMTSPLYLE
Procedure: as §1, §2, §3

- binding amount (SPR, molecules of cyclic peptide bound per one molecule of FGFR at 10 nmol/L peptide) [1]: > 0.7
- binding amount (SPR, molecules of FGFR per one molecule of cyclic peptide, at 1 umol/L FGFR) [2]: ≥ 0.05 moleculesoffgfr/onemoleculeofthecyclicpeptide
- binding amount (SPR, molecules of FGFR per one molecule of cyclic peptide, at 1 umol/L FGFR) [3]: 0.01 to 0.05 moleculesoffgfr/onemoleculeofthecyclicpeptide
- binding amount (SPR, molecules of FGFR per one molecule of cyclic peptide, at 1 umol/L FGFR) [4]: ≥ 0.05 moleculesoffgfr/onemoleculeofthecyclicpeptide
Binder: ACVWTFDRHAQEISQALHK(COCH2)VKKK (thioether 2-19, chemically synthesized) [cyclic peptide SEQ ID NO: 335]

Source: US20260008817A1, “CYCLIC PEPTIDE OR SALT THEREOF, AND USES THEREOF” (FUJIFILM Corporation, priority 2023, published 2026)
